In article PMC13572408:

Target: His6-AstR (Acinetobacter baumannii ATCC 17978VU)
Assay: SEC; purified His6-AstR; size estimated with standard curves; Size Exclusion Buffer (50 mM Tris, 300 mM NaCl, pH 8)

His6-AstR (natural protein)
stoichiometry N: 2
